What all share (experiment): IEDB peptide-MHC binding, purified MHC/competitive/radioactivity; filed as Kd, often an IC50 or EC50 that approximates it; ≥ and ≤ were set here for values at or beyond the usual limits of such assays
Test [1] deals with HLA-A*03:01.
For test [2], the target named is HLA-A*33:01.
Test [3] deals with HLA-A*68:01.
For test [4], the target named is HLA-A*11:01.
For test [5], the target named is HLA-A*31:01.
In test [6] the target is HLA-A*02:06.
Test [7] concerns the target HLA-A*02:03.
[8] abbreviates: source organism: Vaccinia virus WR.
The mark [9] stands for this setting: source organism: SARS coronavirus Tor2.
Setting [10] is: source organism: Dengue virus 3 Martinique/1243/1999.
[11] abbreviates: source organism: Mammarenavirus choriomeningitidis.
The mark [12] stands for this setting: source organism: Mammarenavirus brazilense.
[13] abbreviates: source organism: Lymphocytic choriomeningitis virus (strain Armstrong).
[14] abbreviates: source organism: Dengue virus 2 Jamaica/1409/1983.

The Kd is the constant that tells how readily two partners part at equilibrium.

For the sequence RFVKFNDYRK, the Kd is 516 nM in test [1] (setting [8]); 1830 nM in test [2] (setting [8]); 51.1 nM in test [3] (setting [8]); 429 nM in test [4] (setting [8]); 37.3 nM in test [5] (setting [8]).

Regarding SFGGASCCLY, the Kd was found to be 302 nM in test [1] (setting [9]); 3770 nM in test [2] (setting [9]); 180 nM in test [3] (setting [9]); 140 nM in test [4] (setting [9]); 2500 nM in test [5] (setting [9]).

With TSFGPLVRK, the Kd in test [1] (setting [9]) was 4.39 nM; in test [2] (setting [9]) it was 5250 nM; in test [3] (setting [9]), 7.04 nM; in test [4] (setting [9]), 0.21 nM; in test [5] (setting [9]) it was 452 nM.

Take MINYYNEMSR: the Kd in test [1] (setting [8]) was 143 nM; in test [2] (setting [8]), 406 nM; in test [3] (setting [8]), 13.4 nM; in test [4] (setting [8]), 53.3 nM; in test [5] (setting [8]), 95.9 nM.

Consider ALALLLLDR, for which the Kd was 3150 nM in test [1] (setting [9]); not below 51700 nM in test [2] (setting [9]); not below 52900 nM in test [3] (setting [9]); 7530 nM in test [4] (setting [9]); 8000 nM in test [5] (setting [9]).

Take GIITLYLGAV: the Kd in test [6] (setting [10]) turned out to be 5.01 nM; in test [7] (setting [10]), 4.98 nM.

For the sequence AVFKMSPGYV, in test [7] (source organism: Dengue virus 4 Philippines/H241/1956), the Kd was found to be 7.15 nM.

Take IMKDGRVLV: the Kd in test [7] (source organism: Dengue virus 2 16681-PDK53) turned out to be 19 nM.

On to NFFVFIHMVR, for which the Kd in test [1] (setting [8]) was 174 nM; in test [2] (setting [8]) it was 7.99 nM; in test [3] (setting [8]), 0.996 nM; in test [4] (setting [8]) it was 718 nM; in test [5] (setting [8]), 18.6 nM.

Regarding SAFNKKHFDH, the Kd in test [1] (setting [11]) is not below 22300 nM; in test [2] (setting [11]) it was not below 28700 nM; in test [3] (setting [11]) it was not below 36600 nM; in test [4] (setting [11]), 1250 nM; in test [5] (setting [11]) it was 12500 nM.

For the sequence IMAYVNQAH, the Kd is 2210 nM in test [1] (setting [12]); not below 36000 nM in test [2] (setting [12]); not below 23500 nM in test [3] (setting [12]); not below 26900 nM in test [4] (setting [12]); 3410 nM in test [5] (setting [12]).

As for KLGDKGSPYY, the Kd was 2.48 nM in test [1] (setting [8]); not below 39400 nM in test [2] (setting [8]); 5080 nM in test [3] (setting [8]); 3570 nM in test [4] (setting [8]); not below 23100 nM in test [5] (setting [8]).

Regarding ATKRYPGVMY, the Kd was 32.8 nM in test [1] (setting [8]); not below 70000 nM in test [2] (setting [8]); not below 70200 nM in test [3] (setting [8]); 164 nM in test [4] (setting [8]); 18100 nM in test [5] (setting [8]).

For AIDRQVSVK, the Kd was 144 nM in test [1] (setting [8]); not below 77700 nM in test [2] (setting [8]); 11300 nM in test [3] (setting [8]); 42.1 nM in test [4] (setting [8]); 4370 nM in test [5] (setting [8]).

Turning to TFFIFNKLVK, the Kd in test [1] (setting [9]) is 81.8 nM; in test [2] (setting [9]), 1370 nM; in test [3] (setting [9]), 490 nM; in test [4] (setting [9]), 50.5 nM; in test [5] (setting [9]), 1550 nM.

Turning to VTGLFKDCSK, the Kd in test [1] (setting [9]) was 4670 nM; in test [2] (setting [9]) it was not below 57100 nM; in test [3] (setting [9]) it was 10300 nM; in test [4] (setting [9]), 4740 nM; in test [5] (setting [9]) it was 5120 nM.

For NGQFIHFYR, the Kd in test [1] (setting [13]) was 8350 nM; in test [2] (setting [13]), not below 50400 nM; in test [3] (setting [13]) it was 13.9 nM; in test [4] (setting [13]), 2530 nM; in test [5] (setting [13]) it was 3.67 nM.

Take VSLVKKNKK: the Kd in test [1] (setting [8]) is not below 58500 nM; in test [2] (setting [8]) it was not below 77700 nM; in test [3] (setting [8]) it was not below 27400 nM; in test [4] (setting [8]), 2280 nM; in test [5] (setting [8]), 856 nM.

As to LIIGPMFSGK, the dissociation constant (Kd) in test [1] (setting [8]) is 6.17 nM; in test [2] (setting [8]) it was 2560 nM; in test [3] (setting [8]), 9.92 nM; in test [4] (setting [8]), 1.81 nM; in test [5] (setting [8]) it was 1270 nM.

On to RVLIFILLTA, for which, in test [6] (source organism: Dengue virus 2 Peru/IQT2913/1996), the Kd came to 397 nM.

Turning to VTLDFTKFH, the Kd in test [1] (setting [12]) was 7440 nM; in test [2] (setting [12]), not below 57200 nM; in test [3] (setting [12]), not below 28400 nM; in test [4] (setting [12]) it was 208 nM; in test [5] (setting [12]), 13100 nM.

In the case of SSAVVDNKLK, the Kd was 289 nM in test [1] (setting [8]); 17500 nM in test [2] (setting [8]); 1.19 nM in test [3] (setting [8]); 37.2 nM in test [4] (setting [8]); 1520 nM in test [5] (setting [8]).

Turning to KTQFNYFKK, the Kd in test [1] (setting [9]) was 115 nM; in test [2] (setting [9]), not below 77300 nM; in test [3] (setting [9]), 2830 nM; in test [4] (setting [9]), 2.26 nM; in test [5] (setting [9]), 2.32 nM.

For the sequence NIRLTDTEY, the Kd in test [1] (setting [8]) was not below 78000 nM; in test [2] (setting [8]), not below 77700 nM; in test [3] (setting [8]), not below 77700 nM; in test [4] (setting [8]), not below 77900 nM; in test [5] (setting [8]), not below 77900 nM.

Take TILIRTGLLV: in test [6] (setting [14]), the Kd came to 101 nM.

Turning to ILIRTGLLV, the Kd in test [7] (setting [14]) was determined as 16.3 nM.

Source of the values: the Immune Epitope Database (IEDB).
